Source: patent publication US20140274782A1 (Stanford University, published 2014)

How the values were obtained:
[1] = target: T1, CDK5RAP3-CDK5 regulatory subunit-associated protein 3 (human, UniProt Q96JB5 1-506, limits assumed); assay: ProtoArray, GST-treated control array;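 further: human protein microarray (about 9500 recombinant proteins) incubated overnight with GST alone plus SAM cofactor as the negative control for G9a SET domain methylation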
T1 sequence (looked up): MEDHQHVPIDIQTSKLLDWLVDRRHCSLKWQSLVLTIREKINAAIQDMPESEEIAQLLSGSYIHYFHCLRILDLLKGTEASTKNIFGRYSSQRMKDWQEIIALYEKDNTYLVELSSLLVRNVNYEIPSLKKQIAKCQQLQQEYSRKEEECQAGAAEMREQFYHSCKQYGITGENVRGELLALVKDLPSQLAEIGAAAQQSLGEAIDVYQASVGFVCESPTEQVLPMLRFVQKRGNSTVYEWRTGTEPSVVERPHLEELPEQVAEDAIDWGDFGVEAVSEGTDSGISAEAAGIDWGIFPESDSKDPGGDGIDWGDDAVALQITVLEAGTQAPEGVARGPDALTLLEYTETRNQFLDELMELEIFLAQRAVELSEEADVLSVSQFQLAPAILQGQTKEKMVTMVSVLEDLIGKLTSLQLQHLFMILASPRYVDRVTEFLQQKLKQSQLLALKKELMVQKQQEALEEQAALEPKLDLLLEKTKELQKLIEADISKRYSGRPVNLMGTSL

[2] = target: T2, C12orf62-chromosome 12 open reading frame 62 (C12orf62) (human, UniProt Q96I36 1-57); assay: ProtoArray, GST-treated control array;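 further: human protein microarray (about 9500 recombinant proteins) incubated overnight with GST alone plus SAM cofactor as the negative control for G9a SET domain methylation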
T2 sequence (looked up): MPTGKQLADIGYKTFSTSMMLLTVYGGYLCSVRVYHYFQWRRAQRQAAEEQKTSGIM

[3] = target: T3, MGC10433-RNA-binding protein 42 (human, UniProt Q9BTD8 1-480, limits assumed); assay: ProtoArray, GST-treated control array;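 further: human protein microarray (about 9500 recombinant proteins) incubated overnight with GST alone plus SAM cofactor as the negative control for G9a SET domain methylation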
T3 sequence (looked up): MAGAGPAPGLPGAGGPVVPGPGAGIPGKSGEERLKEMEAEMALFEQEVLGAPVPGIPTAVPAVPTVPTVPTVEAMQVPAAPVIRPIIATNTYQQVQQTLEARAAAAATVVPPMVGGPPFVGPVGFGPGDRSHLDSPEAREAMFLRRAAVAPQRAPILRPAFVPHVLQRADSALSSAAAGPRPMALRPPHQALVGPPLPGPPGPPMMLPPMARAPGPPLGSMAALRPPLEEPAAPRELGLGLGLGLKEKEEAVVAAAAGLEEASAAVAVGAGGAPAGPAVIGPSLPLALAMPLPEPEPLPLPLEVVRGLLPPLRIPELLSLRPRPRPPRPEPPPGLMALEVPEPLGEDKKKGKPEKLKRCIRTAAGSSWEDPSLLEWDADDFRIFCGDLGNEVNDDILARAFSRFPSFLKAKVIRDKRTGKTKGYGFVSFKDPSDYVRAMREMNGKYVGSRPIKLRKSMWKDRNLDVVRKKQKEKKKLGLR

[4] = target: C10orf83-chromosome 10 open reading frame 83 (C10orf83) (human, UniProt Q8NDC4 1-146, limits assumed); assay: ProtoArray, GST-treated control array;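 further: human protein microarray (about 9500 recombinant proteins) incubated overnight with GST alone plus SAM cofactor as the negative control for G9a SET domain methylation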
C10orf83-chromosome 10 open reading frame 83 (C10orf83), sequence (Q8NDC4 whole entry, the tested form may be a part): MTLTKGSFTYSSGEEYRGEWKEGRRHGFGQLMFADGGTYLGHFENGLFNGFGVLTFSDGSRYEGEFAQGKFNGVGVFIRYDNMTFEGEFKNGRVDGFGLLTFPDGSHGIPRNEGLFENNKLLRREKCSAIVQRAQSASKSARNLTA

[5] = target: T4, SH3YL1-SH3 domain containing, Ysc84-like 1 (S. cerevisiae) (SH3YL1) (human, UniProt Q96HL8 1-342, limits assumed); assay: ProtoArray, GST-treated control array
T4 sequence (looked up): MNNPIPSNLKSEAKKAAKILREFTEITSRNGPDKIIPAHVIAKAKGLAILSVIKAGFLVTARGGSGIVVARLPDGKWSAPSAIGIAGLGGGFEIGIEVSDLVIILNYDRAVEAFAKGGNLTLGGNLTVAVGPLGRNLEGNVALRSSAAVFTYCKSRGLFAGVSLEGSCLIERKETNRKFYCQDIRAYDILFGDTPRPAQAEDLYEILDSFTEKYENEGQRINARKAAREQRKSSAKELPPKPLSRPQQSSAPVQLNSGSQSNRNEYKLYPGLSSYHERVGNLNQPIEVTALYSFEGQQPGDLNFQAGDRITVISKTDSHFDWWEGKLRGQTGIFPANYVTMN

[6] = target: T5, SCGB1A1-secretoglobin, family 1A, member 1 (uteroglobin) (SCGB1A1) (human, UniProt P11684 22-91, limits assumed); assay: ProtoArray, GST-treated control array
T5 sequence (looked up): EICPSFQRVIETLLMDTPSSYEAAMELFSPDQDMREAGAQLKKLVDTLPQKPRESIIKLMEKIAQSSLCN

[7] = target: T6, UBE2S-Ubiquitin-conjugating enzyme E2 S (human, UniProt Q16763 1-222); assay: ProtoArray, GST-treated control array
T6 sequence (looked up): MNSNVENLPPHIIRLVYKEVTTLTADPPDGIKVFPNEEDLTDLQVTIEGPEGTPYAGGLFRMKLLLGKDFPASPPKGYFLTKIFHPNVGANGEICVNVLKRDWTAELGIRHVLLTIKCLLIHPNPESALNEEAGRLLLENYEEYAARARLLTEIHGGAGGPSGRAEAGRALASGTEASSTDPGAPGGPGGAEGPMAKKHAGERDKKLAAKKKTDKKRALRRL

[8] = target: LOC400500-PREDICTED: Homo sapiens hypothetical LOC400500 (LOC400500) (human); assay: ProtoArray, GST-treated control array
[9] = target: KRR1-KRR1, small subunit (SSU) processome component, homolog (yeast) (KRR1) (human, UniProt Q13601 1-381, limits assumed); assay: ProtoArray, GST-treated control array
KRR1-KRR1, small subunit (SSU) processome component, homolog (yeast) (KRR1), sequence (Q13601 whole entry): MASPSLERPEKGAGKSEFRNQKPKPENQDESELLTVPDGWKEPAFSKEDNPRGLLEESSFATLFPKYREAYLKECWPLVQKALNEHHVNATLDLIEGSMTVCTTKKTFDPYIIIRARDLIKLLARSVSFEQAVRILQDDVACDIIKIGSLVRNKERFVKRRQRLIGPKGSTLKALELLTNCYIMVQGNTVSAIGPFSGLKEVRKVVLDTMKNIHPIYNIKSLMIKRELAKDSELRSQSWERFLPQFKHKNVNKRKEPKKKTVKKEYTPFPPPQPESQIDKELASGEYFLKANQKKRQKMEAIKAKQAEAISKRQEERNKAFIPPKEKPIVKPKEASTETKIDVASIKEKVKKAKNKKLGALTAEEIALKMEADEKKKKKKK

[10] = target: T7, LRRC20-leucine rich repeat containing 20 (LRRC20) (human, UniProt Q8TCA0 1-184, limits assumed); assay: ProtoArray, GST-treated control array
T7 sequence (looked up): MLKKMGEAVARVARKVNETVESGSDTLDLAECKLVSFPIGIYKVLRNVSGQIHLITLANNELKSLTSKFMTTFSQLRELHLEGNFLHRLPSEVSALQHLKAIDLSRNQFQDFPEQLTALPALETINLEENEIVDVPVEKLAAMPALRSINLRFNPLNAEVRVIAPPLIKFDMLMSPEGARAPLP

[11] = target: LOC145788, G9a-methylated (human); assay: ProtoArray, G9a array SNR minus GST array SNR
Procedure: (§1) Briefly, a ProtoArray (Invitrogen, version 5.0) was incubated overnight with 50 μg of GST or recombinant GSTtagged G9a SET domain and the cofactor SAM.
(§2) Arrays were analyzed using GenePix Pro 6.1 software (Molecular Devices) and feature values were assigned to proteins using the array list provided by Invitrogen. We designated the following criteria for “hits”: GST array signal-to-noise ratio (SNR) less than or equal to 1.5, G9a array SNR greater than or equal to 10, and a difference between the G9a array SNR and the GST array SNR of greater than or equal to 12. Hits were individually visually validated. Proteins were removed from the list of potential substrates if irregular array features appeared to interfere with the array spots or SNR calculations.
(§3) Protein arrays bearing almost 9500 recombinant human proteins were methylated using GST-tagged recombinant G9a SET domain or GST alone as a control as shown in FIG. 4. […] Results were filtered for proteins scoring a GST array signal-to-noise ratio (SNR) less than or equal to 1.5, a G9a array SNR greater to or equal to 10, and a difference between the G9a and GST SNRs of greater than or equal to 12. Subsequent proteins were individually inspected for irregular array features.

[12] = target: cDNA clone IMAGE:4623222 product, G9a-methylated (human); assay: ProtoArray, G9a array SNR minus GST array SNR
Procedure: as §1, §2, §3

MGC4473, G9a-methylated = MGC4473, G9a-methylated (human); assay: ProtoArray, G9a array SNR minus GST array SNR
Procedure: as §1, §2, §3

[13] = target: LOC400500, G9a-methylated (human); assay: ProtoArray, G9a array SNR minus GST array SNR
Procedure: as §1, §2, §3

B1: 3× Flag-3×MBT (designed binder)
chain: EEWSSSQPATGEKKECWSWESYLEEQKAITAPVSLFQDSQAVTHNKNGFKLGMKLEGIDPQHPSMYFILTVAEVCGYRLRLHFDGYSECHDFWVNANSPDIHPAGWFEKTGHKLQPPKGYKEEEFSWSQYLRSTRAQAAPKHLFVSQSHSPPPLGFQVGMKLEAVDRMNPSLVCVASVTDVVDSRFLVHFDNWDDTYDYWCDPSSPYIHPVGWCQKQGKPLTPPQDYPDPDNFCWEKYLEETGASAVPTWAFKVRPPHSFLVNMKLEAVDRRNPALIRVASVEDVEDHRIKIHFDGWSHGYDFWIDADHPDIHPAGWCSKTGHPLQPPLGPREPSSASPGG
notes: also called Flag-tagged 3×MBT; 3xFlag-3xMBT; not shown: made by PreScission cleavage of GST-3× Flag-3×MBT
Question: Which results are given for B1?
Answer: GST Average SNR [1]: -0.34; GST Average SNR [2]: 0.575; GST Average SNR [3]: -0.357; GST Average SNR [4]: 0.742; GST Average SNR [5]: 0.377; GST Average SNR [6]: 1.16; GST Average SNR [7]: 0.283; GST Average SNR [8]: -0.119; GST Average SNR [9]: 0.566; GST Average SNR [10]: 1.4; G9a-GST [11]: 13.8; G9a-GST [12]: 17.8; G9a-GST (MGC4473, G9a-methylated): 21.7; G9a-GST [13]: 29.1
